This note sets out measurements from patent publication US7585638B2, “Test system for measuring the interaction of STAT 6 with NCoA-1” (Boehringer Ingelheim International GmbH, priority 2001, dated 2009).

The target of assay [1] is T1, interaction of STAT6 and NCoA-1 (Mus musculus, UniProt P70365).
T1 construct: made in house; host or cells: E. coli for GST-STAT6-TAD
Nature of the assay: GST pull-down assay of [35S]-labeled NCoA-1 with GST-STAT6-TAD in presence of peptides. In kind it is binding, human. As to conditions: 100 μg peptide; 4 μg GST-STAT6-TAD; SDS-PAGE and fluorography. On the procedure:
4 μg GST or GST-STAT6-TAD fusion protein purified from E. coli, are bound to 20 μl glutathione-Sepharose and are incubated with 1.5 μl [^35S]-labeled NCoA-1 in the presence of 100 μg peptide 1, or peptide 2, or peptide 3 respectively, as indicated. Material bound to the glutathione-Sepharose is recovered from the binding reaction, extensively washed and analyzed by SDS-PAGE and fluorography (lanes 2-6). Input control in lane 1 reflects 10% of the total amount of ^35S-labeled NCoA-1 used in the experiments.

For another assay, the target named is T2, GST-STAT6 (aa 677-847) (Homo sapiens, UniProt P42226).
T2 construct: made in house; host or cells: E. coli
Briefly: STAT6/NCoA-1-ELISA (His-NCoA-1 bound to coated GST-STAT6). In kind it is binding. As to conditions: 500 ng GST-STAT6 (677-847) coated, 250 ng His-NCoA-1 (212-463) added; α-Penta-His and α-mouse-HRP; average of three experiments. On the procedure: The following is an illustration of how an interaction of STAT6 with NCoA-1 can be performed in order to identify a substance which can modulate said interaction.
Substrate solution: dissolve a phosphate citrate buffer tablet (Sigma) in 100 ml water to obtain 0.05 M phosphate citrate buffer pH 5.5. Dissolve a tablet of o-Phenylendiamine dihydrochloride (Sigma) in 30 ml of phosphate citrate buffer in the dark. Prior to use add 30 μl of 30% H2O2. Recombinant Proteins: GST-STAT6 aa 677-847 and His-tagged NCoA-1 aa 212-463 are expressed in E. coli, purified by affinity-chromatografie and dialyzed against 1×PBS according to the art. Sequences of Recombinant Proteins: GST-STAT6 aa 677-847 protein, SEQ ID NO:1 His-tagged NCoA-1 aa 212-463, SEQ ID NO: 3 Antibodies: 1. Antibody: Penta-His, Quiagen (Cat. No. 34660) 2. […] Determine the optical density of each well within 15 minutes, using an ELISA reader set to […]. […]
500 ng of E. coli expressed and affinity purified GST-STAT6 TAD (amino acid, aa 677-847) is coated to 96 well ELISA-plates as indicated. After incubation with 250 ng of E. coli expressed, affinity purified His-NCoA-1 (aa 212-463), bound protein is detected by mouse anti-His-antibody and peroxidase coupled sheep anti-mouse-antibody as indicated. […] Conversion of peroxidase substrate O-phenylenediamine is measured at 492 nm. […]
(In an ELISA, binding on a coated surface is turned into a signal by an enzyme label.)

T1 sequence (P70365 whole entry): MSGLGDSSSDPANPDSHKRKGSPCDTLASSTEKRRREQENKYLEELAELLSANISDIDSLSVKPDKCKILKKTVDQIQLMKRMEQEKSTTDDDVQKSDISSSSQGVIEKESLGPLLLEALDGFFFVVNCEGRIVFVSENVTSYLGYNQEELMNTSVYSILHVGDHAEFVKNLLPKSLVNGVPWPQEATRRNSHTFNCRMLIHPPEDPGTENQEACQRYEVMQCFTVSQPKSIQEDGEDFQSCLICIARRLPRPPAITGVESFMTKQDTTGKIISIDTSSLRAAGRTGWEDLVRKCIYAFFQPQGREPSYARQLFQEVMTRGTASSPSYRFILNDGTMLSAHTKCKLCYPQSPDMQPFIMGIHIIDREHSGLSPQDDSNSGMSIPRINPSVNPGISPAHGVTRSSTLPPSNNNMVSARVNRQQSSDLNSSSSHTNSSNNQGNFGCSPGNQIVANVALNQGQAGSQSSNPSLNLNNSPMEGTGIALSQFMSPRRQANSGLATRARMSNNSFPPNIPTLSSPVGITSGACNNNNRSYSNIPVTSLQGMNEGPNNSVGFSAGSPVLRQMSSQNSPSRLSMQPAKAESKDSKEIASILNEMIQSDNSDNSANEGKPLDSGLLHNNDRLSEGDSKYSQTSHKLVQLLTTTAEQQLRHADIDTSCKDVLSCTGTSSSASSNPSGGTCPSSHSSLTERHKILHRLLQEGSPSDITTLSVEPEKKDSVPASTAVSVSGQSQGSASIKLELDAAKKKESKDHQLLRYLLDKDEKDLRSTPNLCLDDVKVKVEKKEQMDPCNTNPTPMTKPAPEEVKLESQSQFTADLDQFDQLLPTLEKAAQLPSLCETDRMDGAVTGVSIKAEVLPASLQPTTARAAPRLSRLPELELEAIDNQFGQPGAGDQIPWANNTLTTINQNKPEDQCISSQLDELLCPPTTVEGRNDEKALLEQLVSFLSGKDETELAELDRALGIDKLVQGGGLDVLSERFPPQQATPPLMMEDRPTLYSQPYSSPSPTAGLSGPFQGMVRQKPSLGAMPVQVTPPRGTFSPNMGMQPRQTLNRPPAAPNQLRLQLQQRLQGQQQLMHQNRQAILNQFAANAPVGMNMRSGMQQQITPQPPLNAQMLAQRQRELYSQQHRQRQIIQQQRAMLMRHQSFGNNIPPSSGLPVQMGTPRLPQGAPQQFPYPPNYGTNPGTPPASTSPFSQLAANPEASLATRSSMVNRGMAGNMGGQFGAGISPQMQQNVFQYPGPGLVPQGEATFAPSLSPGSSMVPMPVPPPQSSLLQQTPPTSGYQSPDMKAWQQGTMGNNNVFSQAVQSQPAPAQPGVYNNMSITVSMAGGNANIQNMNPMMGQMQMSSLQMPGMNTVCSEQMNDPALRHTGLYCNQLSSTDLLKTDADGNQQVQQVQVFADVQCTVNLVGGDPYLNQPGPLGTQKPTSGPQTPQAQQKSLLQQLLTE
T2 sequence (P42226 with tags, fused parts or gaps): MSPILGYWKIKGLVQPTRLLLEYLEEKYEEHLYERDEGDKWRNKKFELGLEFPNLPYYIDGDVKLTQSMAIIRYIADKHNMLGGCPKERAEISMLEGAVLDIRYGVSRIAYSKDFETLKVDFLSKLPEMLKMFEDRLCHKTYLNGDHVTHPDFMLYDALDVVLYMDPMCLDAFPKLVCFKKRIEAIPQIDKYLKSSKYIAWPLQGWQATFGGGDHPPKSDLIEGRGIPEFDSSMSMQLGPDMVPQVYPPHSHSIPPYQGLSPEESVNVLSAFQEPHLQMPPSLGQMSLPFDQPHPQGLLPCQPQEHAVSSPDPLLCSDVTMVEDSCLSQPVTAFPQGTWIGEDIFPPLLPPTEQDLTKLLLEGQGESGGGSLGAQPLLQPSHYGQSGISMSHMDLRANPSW

Regarding “peptide 1: peptide derived from the STAT6 trans-activation domain, amino acid 794 to 814, SEQ ID NO: 6, contains LXXLL motif (LLPPTEQDLTKLLLEGQGESG; Part of SEQ ID 5; listed as Homo sapiens)”, the “binding of GST-STAT6-TAD with NCoA-1 in presence of peptide” value (from here on “binding of GST-STAT6-TAD”) in assay [1] is recorded as “less binding”.

For “peptide 2: peptide derived from the STAT6 trans-activation domain, amino acid 817 to 830 (SLGAQPLLQPSHYG; UniProt P42226 817-830, looked up, fragment)”, in assay [1], the “binding of GST-STAT6-TAD” value is reported as “does not alter the binding capacity of GST-STAT6-TAD with NCoA-1 significantly”.

In the case of “peptide 3: peptide derived from the STAT6 trans-activation domain, amino acid 830 to 847 (GQSGISMSHMDLRANPSW; UniProt P42226 830-847, looked up, fragment)”, in assay [1], the “binding of GST-STAT6-TAD” value is reported as “does not alter the binding capacity of GST-STAT6-TAD with NCoA-1 significantly”.

B1: His-NCoA-1: His-tagged NCoA-1 fragment aa 212-463, expressed in E. coli, affinity purified, SEQ ID NO: 3 (protein)
chain: MHHHHHHSSGLVPRGSGMKETAAAKFERQHMDSPDLGTDDDDKAMGYLWIQEACQRYEVMQCFTVSQPKSIQEDGEDFQSCLICIARRLPRPPAITGVESFMTKQDTTGKIISIDTSSLRAAGRTGWEDLVRKCIYAFFQPQGREPSYARQLFQEVMTRGTASSPSYRFILNDGTMLSAHTKCKLCYPQSPDMQPFIMGIHIIDREHSGLSPQDDSNSGMSIPRINPSVNPGISPAHGVTRSSTLPPSNNNMVSARVNRQQSSDLNSSSSHTNSSNNQGNFGCSPGNQIVANVALNQGQAGSLEHHHHHH
modifications: His tag
On to B1, for which the “Extinction 493 nm” value with GST-STAT6 (aa 677-847) is recorded as 0.795.
